Here are results for 1 molecule from paper PMC10963238, “The bacterial division protein MinDE has an independent function in flagellation” (The Journal of Biological Chemistry, 2024).

The target of this assay is T1, His-tagged cytoplasmic part of AtoS (232–608aa, cyto-AtoS) (Escherichia coli K-12, UniProt Q06067 232-608).
T1 construct: AtoS of Escherichia coli K-12, cytoplasmic part, residues 232-608; also called His-cyto-AtoS; His-AtoS; source: E. coli BL21 [DE3], purified (Ni2+-NTA agarose)
T1 sequence (looked up): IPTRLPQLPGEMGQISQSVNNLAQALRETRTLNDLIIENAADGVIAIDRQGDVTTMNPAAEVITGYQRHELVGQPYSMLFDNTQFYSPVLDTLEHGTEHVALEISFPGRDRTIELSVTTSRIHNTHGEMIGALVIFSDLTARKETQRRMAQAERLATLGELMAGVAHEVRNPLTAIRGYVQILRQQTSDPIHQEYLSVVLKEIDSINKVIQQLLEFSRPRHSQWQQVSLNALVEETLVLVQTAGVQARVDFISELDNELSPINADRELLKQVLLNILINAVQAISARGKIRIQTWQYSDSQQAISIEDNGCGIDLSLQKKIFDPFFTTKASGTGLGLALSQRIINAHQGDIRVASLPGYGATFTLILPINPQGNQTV
As to the kind of experiment: pull-down; GST-MinD (5 μM) with His-cyto-AtoS (5 μM) in 50 mM Hepes pH 7.4, 150 mM KCl, room temperature 30 min; His-cyto-AtoS held on HisPure cobalt resin, 1 h at 4 °C; washed with 20 mM imidazole, eluted with 300 mM imidazole; Western blot with anti-GST and anti-His. Particulars: both partners purified.

B1: GST-MinD (natural protein, Escherichia coli K-12, UniProt P0AEZ3 1-270, looked up)
chain: MARIIVVTSGKGGVGKTTSSAAIATGLAQKGKKTVVIDFDIGLRNLDLIMGCERRVVYDFVNVIQGDATLNQALIKDKRTENLYILPASQTRDKDALTREGVAKVLDDLKAMDFEFIVCDSPAGIETGALMALYFADEAIITTNPEVSSVRDSDRILGILASKSRRAENGEEPIKEHLLLTRYNPGRVSRGDMLSMEDVLEILRIKLVGVIPEDQSVLRASNQGEPVILDINADAGKAYADTVERLLGEERPFRFIEEEKKGFLKRLFGG
notes: MinD of Escherichia coli K-12; ORF amplified from E. coli K-12 genomic DNA; also called GST-tagged MinD; source: dialyzed against 50 mM Hepes pH 7.4, 150 mM KCl, 10% glycerol
B1: the binding result was “binds”.
